Test in all cases: flow cytometry, Fab on HEK-293T cells expressing the mutant; labels of this column stand one row too low, mutant assigned after shifting them up
The target in one assay is T1, human CD131 D144A (human, UniProt P32927 17-897).
T1 construct: whole, on cells
T1 sequence (looked up): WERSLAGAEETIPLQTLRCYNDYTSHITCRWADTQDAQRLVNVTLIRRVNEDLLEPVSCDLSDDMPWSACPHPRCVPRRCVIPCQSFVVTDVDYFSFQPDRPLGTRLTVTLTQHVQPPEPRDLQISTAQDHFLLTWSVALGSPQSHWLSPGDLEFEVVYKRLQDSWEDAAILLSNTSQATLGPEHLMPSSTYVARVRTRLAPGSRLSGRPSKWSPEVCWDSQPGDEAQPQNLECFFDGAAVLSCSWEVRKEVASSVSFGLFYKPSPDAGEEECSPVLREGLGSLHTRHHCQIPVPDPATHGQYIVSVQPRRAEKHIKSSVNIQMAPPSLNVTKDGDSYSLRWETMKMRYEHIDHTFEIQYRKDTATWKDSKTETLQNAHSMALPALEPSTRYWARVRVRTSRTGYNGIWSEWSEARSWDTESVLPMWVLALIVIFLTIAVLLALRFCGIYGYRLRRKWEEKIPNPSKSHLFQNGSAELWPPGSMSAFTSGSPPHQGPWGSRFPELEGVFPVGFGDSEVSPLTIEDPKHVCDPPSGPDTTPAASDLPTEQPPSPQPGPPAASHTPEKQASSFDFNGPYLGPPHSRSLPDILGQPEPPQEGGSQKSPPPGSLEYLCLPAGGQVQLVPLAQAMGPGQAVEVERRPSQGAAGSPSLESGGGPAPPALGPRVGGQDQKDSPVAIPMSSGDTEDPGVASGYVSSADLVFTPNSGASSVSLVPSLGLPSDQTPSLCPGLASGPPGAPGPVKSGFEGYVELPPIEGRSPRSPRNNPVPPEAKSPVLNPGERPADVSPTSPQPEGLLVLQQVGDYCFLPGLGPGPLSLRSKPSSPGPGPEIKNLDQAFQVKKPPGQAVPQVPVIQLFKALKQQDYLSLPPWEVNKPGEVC

The next assay addresses T2, human CD131 D146A (human, UniProt P32927 17-897).
T2 construct: whole, on cells
T2 sequence (looked up): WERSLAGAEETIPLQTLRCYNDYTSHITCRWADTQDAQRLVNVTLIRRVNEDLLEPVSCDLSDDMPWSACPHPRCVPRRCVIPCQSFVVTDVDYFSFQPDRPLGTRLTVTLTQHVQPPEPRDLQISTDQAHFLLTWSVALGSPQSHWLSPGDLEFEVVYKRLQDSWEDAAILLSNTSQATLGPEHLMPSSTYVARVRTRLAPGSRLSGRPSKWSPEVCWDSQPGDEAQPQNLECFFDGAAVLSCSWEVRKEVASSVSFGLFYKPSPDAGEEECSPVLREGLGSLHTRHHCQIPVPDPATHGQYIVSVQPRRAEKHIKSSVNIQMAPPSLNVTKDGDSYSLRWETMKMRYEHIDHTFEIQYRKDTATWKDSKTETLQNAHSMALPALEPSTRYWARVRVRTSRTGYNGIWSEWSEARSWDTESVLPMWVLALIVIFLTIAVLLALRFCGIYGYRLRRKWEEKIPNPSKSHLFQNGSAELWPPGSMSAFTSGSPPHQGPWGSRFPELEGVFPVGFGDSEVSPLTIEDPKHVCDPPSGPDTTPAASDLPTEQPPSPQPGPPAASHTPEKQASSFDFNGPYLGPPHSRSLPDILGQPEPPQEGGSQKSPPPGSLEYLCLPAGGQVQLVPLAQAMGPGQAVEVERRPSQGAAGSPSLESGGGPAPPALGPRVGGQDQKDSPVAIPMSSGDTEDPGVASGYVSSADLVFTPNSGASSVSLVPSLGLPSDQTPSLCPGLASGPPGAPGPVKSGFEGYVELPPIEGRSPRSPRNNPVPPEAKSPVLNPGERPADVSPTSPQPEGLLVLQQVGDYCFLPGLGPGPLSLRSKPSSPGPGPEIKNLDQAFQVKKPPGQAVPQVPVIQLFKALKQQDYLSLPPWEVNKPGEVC

The target in another assay is T3, human CD131 G198A (human, UniProt P32927 17-897).
T3 construct: whole, on cells
T3 sequence (looked up): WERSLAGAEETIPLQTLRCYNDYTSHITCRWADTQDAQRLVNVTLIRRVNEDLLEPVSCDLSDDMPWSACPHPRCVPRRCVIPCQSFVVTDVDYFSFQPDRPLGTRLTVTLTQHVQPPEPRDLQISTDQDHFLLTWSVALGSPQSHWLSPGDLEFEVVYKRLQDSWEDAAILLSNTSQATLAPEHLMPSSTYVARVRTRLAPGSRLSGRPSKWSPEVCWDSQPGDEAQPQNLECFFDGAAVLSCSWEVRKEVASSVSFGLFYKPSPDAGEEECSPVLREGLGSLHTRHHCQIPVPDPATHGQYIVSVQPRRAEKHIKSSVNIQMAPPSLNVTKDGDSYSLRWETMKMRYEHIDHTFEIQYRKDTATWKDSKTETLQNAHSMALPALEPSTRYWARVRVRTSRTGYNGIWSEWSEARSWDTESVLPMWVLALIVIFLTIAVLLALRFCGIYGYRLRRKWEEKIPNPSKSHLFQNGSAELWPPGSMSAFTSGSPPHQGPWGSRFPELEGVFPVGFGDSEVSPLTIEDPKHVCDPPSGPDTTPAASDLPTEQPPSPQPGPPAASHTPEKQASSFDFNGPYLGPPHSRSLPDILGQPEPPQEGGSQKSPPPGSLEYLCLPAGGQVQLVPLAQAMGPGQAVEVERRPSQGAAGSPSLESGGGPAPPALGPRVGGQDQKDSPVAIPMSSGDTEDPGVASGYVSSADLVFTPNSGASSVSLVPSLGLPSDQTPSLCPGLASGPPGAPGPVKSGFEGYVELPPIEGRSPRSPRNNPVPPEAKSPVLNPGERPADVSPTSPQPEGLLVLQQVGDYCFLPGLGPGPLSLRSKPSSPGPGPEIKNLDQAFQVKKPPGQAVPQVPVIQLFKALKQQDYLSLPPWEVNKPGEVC

B1: anti-CD131 antibody 131-B2, Fab (Fab, V domains shown)
VH: QVQLVQSGAEVKEPGASVKISCKASGYTFTNDYMHWVRQAPGQGLEWMGIINPTGGGTSYAQKFRGRVTMTRDTSTSTVYMELSSLRSEDTAVFYCARERYYGSGTYFNIGLWYFDLWGRGTLVTVSS
VL: not shown
notes: Fab made from the antibody by an enzyme treatment
With B1, the “Binding Reactivity (% WT)” value was determined as 129 % WT in the assay with human CD131 D144A, 88.4 % WT in the assay with human CD131 D146A and 194 % WT in the assay with human CD131 G198A.
